Test results as given in the supplement of paper PMC5998384.

Legend:
HeLa Kyoto [1] = experiment: solubility in G1/S (NP-40 vs SDS abundance) (log2 ratio); higher = more soluble; details: cell cycle stage: G1/S
HeLa Kyoto [2] = experiment: solubility change mitosis vs G1/S (difference of NP-40 vs SDS log2 ratios) (log2 ratio difference); higher = more soluble in mitosis
HeLa Kyoto [3] = experiment: melting temperature (median over replicates), in situ; higher = more thermally stable
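For melting temperature (median over replicates), in situ in this document: HeLa Kyoto cells synchronized by double thymidine or nocodazole block, proteins quantified by TMT10plex mass spectrometry, three independent biological replicates.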
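For solubility change mitosis vs G1/S (difference of NP-40 vs SDS log2 ratios) in this document: synchronized HeLa Kyoto cells (double thymidine block for G1/S, nocodazole release for mitosis), protein amounts in NP-40 versus SDS lysates quantified by mass spectrometry, three biological replicates.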
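For solubility in G1/S (NP-40 vs SDS abundance) in this document: HeLa Kyoto cells arrested at G1/S by double thymidine block, proteins quantified by TMT10plex mass spectrometry in mild NP-40 versus SDS extracts, three biological replicates.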

Row | Substance | solubility in G1/S (log2) (HeLa Kyoto [1]) | solubility change mitosis (log2) (HeLa Kyoto [2]) | melting temperature (HeLa Kyoto [3]; cell cycle stage: G1/S) [°C] | melting temperature (HeLa Kyoto [3]; cell cycle stage: mitosis) [°C]
1 | MSGFNFGGTGAPTGGFTFGTAKTATTTPATGFSFSTSGTGGFNFGAPFQPATSTPSTGLFSLATQTPATQTTGFTFGTATLASGGTGFSLGIGASKLNLSNTAATPAMANPSGFGLGSSNLTNAISSTVTSSQGTAPTGFVFGPSTTSVAPATTSGGFSFTGGSTAQPSGFNIGSAGNSAQPTAPATLPFTPATPAATTAGATQPAAPTPTATITSTGPSLFASIATAPTSSATTGLSLCTPVTTAGAPTAGTQGFSLKAPGAASGTSTTTSTAATATATTTSSSSTTGFALNLKPLAPAGIPSNTAAAVTAPPGPGAAAGAAASSAMTYAQLESLINKWSLELEDQERHFLQQATQVNAWDRTLIENGEKITSLHREVEKVKLDQKRLDQELDFILSQQKELEDLLSPLEELVKEQSGTIYLQHADEEREKTYKLAENIDAQLKRMAQDLKDIIEHLNTSGAPADTSDPLQQICKILNAHMDSLQWIDQNSALLQRKVEEVTKVCEGRRKEQERSFRITFD [NUP62] | 0.32 | 0.107 | 51.8 | 51.7
2 | MGFLRRLIYRRRPMIYVESSEESSDEQPDEVESPTQSQDSTPAEEREDEGASAAQGQEPEADSQELVQPKTGCELGDGPDTKRVCLRNEEQMKLPAEGPEPEADSQEQVHPKTGCERGDGPDVQELGLPNPEEVKTPEEDEGQSQP [PAGE1] | -0.617 | 0.603 | 53.3 | 51.6
3 | MGSQALPPGPMQTLIFFDMEATGLPFSQPKVTELCLLAVHRCALESPPTSQGPPPTVPPPPRVVDKLSLCVAPGKACSPAASEITGLSTAVLAAHGRQCFDDNLANLLLAFLRRQPQPWCLVAHNGDRYDFPLLQAELAMLGLTSALDGAFCVDSITALKALERASSPSEHGPRKSYSLGSIYTRLYGQSPPDSHTAEGDVLALLSICQWRPQALLRWVDAHARPFGTIRPMYGVTASARTKPRPSAVTTTAHLATTRNTSPSLGESRGTKDLPPVKDPGALSREGLLAPLGLLAILTLAVATLYGLSLATPGE [TREX1] | -0.198 | 0.329 | 53.5 | 56.2
4 | MSAKPEVSLVREASRQIVAGGSAGLVEICLMHPLDVVKTRFQIQRCATDPNSYKSLVDSFRMIFQMEGLFGFYKGILPPILAETPKRAVKFFTFEQYKKLLGYVSLSPALTFAIAGLGSGLTEAIVVNPFEVVKVGLQANRNTFAEQPSTVGYARQIIKKEGWGLQGLNKGLTATLGRHGVFNMVYFGFYYNVKNMIPVNKDPILEFWRKFGIGLLSGTIASVINIPFDVAKSRIQGPQPVPGEIKYRTCFKTMATVYQEEGILALYKGLLPKIMRLGPGGAVMLLVYEYTYSWLQENW [SLC25A21] | -0.251 | -0.00648 | 56.9 | 55.7
5 | MWPPCGTLRTLALARSRGARACSGDGGVSYTQGQSPEPRTREYFYYVDHQGQLFLDDSKMKNFITCFKDPQFLVTFFSRLRPNRSGRYEAAFPFLSPCGRERNFLRCEDRPVVFTHLLTADHGPPRLSYCGGGEALAVPFEPARLLPLAANGRLYHPAPERAGGVGLVRSALAFELSACFEYGPGAPALPSHVRWQGRRLALTMDLAPLLLAARSP [C8ORF82] | 0.265 | 0.0375 | 52.4 | 54.3
6 | MNRPAPVEISYENMRFLITHNPTNATLNKFTEELKKYGVTTLVRVCDATYDKAPVEKEGIHVLDWPFDDGAPPPNQIVDDWLNLLKTKFREEPGCCVAVHCVAGLGRAPVLVALALIECGMKYEDAVQFIRQKRRGAFNSKQLLYLEKYRPKMRLRFRDTNGHCCVQ [PTP4A2] | -0.226 | -0.087 | 53.7 | 54.1
7 | MAAAAAGAGSGPWAAQEKQFPPALLSFFIYNPRFGPREGQEENKILFYHPNEVEKNEKIRNVGLCEAIVQFTRTFSPSKPAKSLHTQKNRQFFNEPEENFWMVMVVRNPIIEKQSKDGKPVIEYQEEELLDKVYSSVLRQCYSMYKLFNGTFLKAMEDGGVKLLKERLEKFFHRYLQTLHLQSCDLLDIFGGISFFPLDKMTYLKIQSFINRMEESLNIVKYTAFLYNDQLIWSGLEQDDMRILYKYLTTSLFPRHIEPELAGRDSPIRAEMPGNLQHYGRFLTGPLNLNDPDAKCRFPKIFVNTDDTYEELHLIVYKAMSAAVCFMIDASVHPTLDFCRRLDSIVGPQLTVLASDICEQFNINKRMSGSEKEPQFKFIYFNHMNLAEKSTVHMRKTPSVSLTSVHPDLMKILGDINSDFTRVDEDEEIIVKAMSDYWVVGKKSDRRELYVILNQKNANLIEVNEEVKKLCATQFNNIFFLD [CCZ1] | 0.0726 | -0.169 | 50.9 | 51.8
8 | MDFENLFSKPPNPALGKTATDSDERIDDEIDTEVEETQEEKIKLECEQIPKKFRHSAISPKSSLHRKSRSKDYDVYSDNDICSQESEDNFAKELQQYIQAREMANAAQPEESTKKEGVKDTPQAAKQKNKNLKAGHKNGKQKKMKRKWPGPGNKGSNALLRNSGSQEEDGKPKEKQQHLSQAFINQHTVERKGKQICKYFLERKCIKGDQCKFDHDAEIEKKKEMCKFYVQGYCTRGENCLYLHNEYPCKFYHTGTKCYQGEYCKFSHAPLTPETQELLAKVLDTEKKSCK [ZC3H8] | -0.126 | 0.444 | 55.1 | 55.1
9 | MAAPEAWRARSCWFCEVAAATTMEATSREAAPAKSSASGPNAPPALFELCGRAVSAHMGVLESGVWALPGPILQSILPLLNIYYLERIEETALKKGLSTQAIWRRLWDELMKTRPSSLESVTCWRAKFMEAFFSHVLRGTIDVSSDRRLCDQRFSPLLHSSRHVRQLTICNMLQGATELVAEPNRRVLETLASSLHTLKFRHLLFSDVAAQQSLRQLLHQLIHHGAVSQVSLYSWPVPESALFILILTMSAGFWQPGPGGPPCRLCGEASRGRAPSRDEGSLLLGSRRPRRDAAERCAAALMASRRKSEAKQMPRAAPATRVTRRSTQESLTAGGTDLKRELHPPATSHEAPGTKRSPSAPAATSSASSSTSSYKRAPASSAPQPKPLKRFKRAAGKKGARTRQGPGAESEDLYDFVFIVAGEKEDGEEMEIGEVACGALDGSDPSCLGLPALEASQRFRSISTLELFTVPLSTEAALTLCHLLSSWVSLESLTLSYNGLGSNIFRLLDSLRALSGQAGCRLRALHLSDLFSPLPILELTRAIVRALPLLRVLSIRVDHPSQRDNPGVPGNAGPPSHIIGDEEIPENCLEQLEMGFPRGAQPAPLLCSVLKASGSLQQLSLDSATFASPQDFGLVLQTLKEYNLALKRLSFHDMNLADCQSEVLFLLQNLTLQEITFSFCRLFEKRPAQFLPEMVAAMKGNSTLKGLRLPGNRLGNAGLLALADVFSEDSSSSLCQLDISSNCIKPDGLLEFAKRLERWGRGAFGHLRLFQNWLDQDAVTAREAIRRLRATCHVVSDSWDSSQAFADYVSTM [LRRC41] | -0.31 | 0.0944 | 47.9 | 49.5
10 | MSQATKRKHVVKEVLGEHIVPSDQQQIVRVLRTPGNNLHEVETAQGQRFLVSMPSKYRKNIWIKRGDFLIVDPIEEGEKVKAEISFVLCKDHVRSLQKEGFWPEAFSEVAEKHNNRNRQTQPELPAEPQLSGEESSSEDDSDLFVNTNRRQYHESEEESEEEEAA [EIF1AD] | 0.37 | -0.0155 | 53.5 | 53.3
11 | MRGAGPSPRQSPRTLRPDPGPAMSFFRRKVKGKEQEKTSDVKSIKASISVHSPQKSTKNHALLEAAGPSHVAINAISANMDSFSSSRTATLKKQPSHMEAAHFGDLGRSCLDYQTQETKSSLSKTLEQVLHDTIVLPYFIQFMELRRMEHLVKFWLEAESFHSTTWSRIRAHSLNTVKQSSLAEPVSPSKKHETTASFLTDSLDKRLEDSGSAQLFMTHSEGIDLNNRTNSTQNHLLLSQECDSAHSLRLEMARAGTHQVSMETQESSSTLTVASRNSPASPLKELSGKLMKSIEQDAVNTFTKYISPDAAKPIPITEAMRNDIIARICGEDGQVDPNCFVLAQSIVFSAMEQEHFSEFLRSHHFCKYQIEVLTSGTVYLADILFCESALFYFSEYMEKEDAVNILQFWLAADNFQSQLAAKKGQYDGQEAQNDAMILYDKYFSLQATHPLGFDDVVRLEIESNICREGGPLPNCFTTPLRQAWTTMEKVFLPGFLSSNLYYKYLNDLIHSVRGDEFLGGNVSLTAPGSVGPPDESHPGSSDSSASQSSVKKASIKILKNFDEAIIVDAASLDPESLYQRTYAGKMTFGRVSDLGQFIRESEPEPDVRKSKGSMFSQAMKKWVQGNTDEAQEELAWKIAKMIVSDIMQQAQYDQPLEKSTKL [AKAP10] | 0.00407 | -0.166 | – | 49.8
12 | MAENHCELLSPARGGIGAGLGGGLCRRCSAGLGALAQRPGSVSKWVRLNVGGTYFLTTRQTLCRDPKSFLYRLCQADPDLDSDKDETGAYLIDRDPTYFGPVLNYLRHGKLVINKDLAEEGVLEEAEFYNITSLIKLVKDKIRERDSKTSQVPVKHVYRVLQCQEEELTQMVSTMSDGWKFEQLVSIGSSYNYGNEDQAEFLCVVSKELHNTPYGTASEPSEKAKILQERGSRM [KCTD5] | 0.136 | -0.0362 | 56.7 | 57.5
13 | MGPRARPALLLLMLLQTAVLQGRLLRSHSLHYLFMGASEQDLGLSLFEALGYVDDQLFVFYDHESRRVEPRTPWVSSRISSQMWLQLSQSLKGWDHMFTVDFWTIMENHNHSKESHTLQVILGCEMQEDNSTEGYWKYGYDGQDHLEFCPDTLDWRAAEPRAWPTKLEWERHKIRARQNRAYLERDCPAQLQQLLELGRGVLDQQVPPLVKVTHHVTSSVTTLRCRALNYYPQNITMKWLKDKQPMDAKEFEPKDVLPNGDGTYQGWITLAVPPGEEQRYTCQVEHPGLDQPLIVIWEPSPSGTLVIGVISGIAVFVVILFIGILFIILRKRQGSRGAMGHYVLAERE [HFE] | 0.207 | 0.0716 | 55.9 | 57.2
14 | MGNLFGRKKQSRVTEQDKAILQLKQQRDKLRQYQKRIAQQLERERALARQLLRDGRKERAKLLLKKKRYQEQLLDRTENQISSLEAMVQSIEFTQIEMKVMEGLQFGNECLNKMHQVMSIEEVERILDETQEAVEYQRQIDELLAGSFTQEDEDAILEELSAITQEQIELPEVPSEPLPEKIPENVPVKARPRQAELVAAS [CHMP6] | 0.453 | 0.149 | – | 52.2
15 | MAAAGARPVELGFAESAPAWRLRSEQFPSKVGGRPAWLGAAGLPGPQALACELCGRPLSFLLQVYAPLPGRPDAFHRCIFLFCCREQPCCAGLRVFRNQLPRKNDFYSYEPPSENPPPETGESVCLQLKSGAHLCRVCGCLGPKTCSRCHKAYYCSKEHQTLDWRLGHKQACAQPDHLDHIIPDHNFLFPEFEIVIETEDEIMPEVVEKEDYSEIIGSMGEALEEELDSMAKHESREDKIFQKFKTQIALEPEQILRYGRGIAPIWISGENIPQEKDIPDCPCGAKRILEFQVMPQLLNYLKADRLGKSIDWGILAVFTCAESCSLGTGYTEEFVWKQDVTDTP [PDCD2] | -0.116 | -0.0555 | 48.5 | 48.3
16 | MELERIVSAALLAFVQTHLPEADLSGLDEVIFSYVLGVLEDLGPSGPSEENFDMEAFTEMMEAYVPGFAHIPRGTIGDMMQKLSGQLSDARNKENLQPQSSGVQGQVPISPEPLQRPEMLKEETRSSAAAAADTQDEATGAEEELLPGVDVLLEVFPTCSVEQAQWVLAKARGDLEEAVQMLVEGKEEGPAAWEGPNQDLPRRLRGPQKDELKSFILQKYMMVDSAEDQKIHRPMAPKEAPKKLIRYIDNQVVSTKGERFKDVRNPEAEEMKATYINLKPARKYRFH [CUEDC2] | 0.417 | 0.134 | 46.8 | 51.7
17 | MAVCGLGSRLGLGSRLGLRGCFGAARLLYPRFQSRGPQGVEDGDRPQPSSKTPRIPKIYTKTGDKGFSSTFTGERRPKDDQVFEAVGTTDELSSAIGFALELVTEKGHTFAEELQKIQCTLQDVGSALATPCSSAREAHLKYTTFKAGPILELEQWIDKYTSQLPPLTAFILPSGGKISSALHFCRAVCRRAERRVVPLVQMGETDANVAKFLNRLSDYLFTLARYAAMKEGNQEKIYMKNDPSAESEGL [MMAB] | 0.574 | 0.126 | 51.8 | 55.8
18 | CHD9 | -0.312 | 0.0275 | – | 50.1
